Results as given in patent publication US20240285816A1, “FORMULATIONS FOR RADIOTHERAPY AND DIAGNOSTIC IMAGING” (priority 2016, published 2024).

How the values were obtained:
[1] = Single dose preclinical toxicology study, intravenous injection; type: in vivo, Sprague Dawley rats
Method: A single dose preclinical toxicology study in Sprague Dawley rats was conducted to evaluate the potential toxicity of SARTATE when administered via intravenous injection. Testing was performed on solutions of SARTATE-copper-complex (SCC) and unlabeled SARTATE ligand (SL) at a 1:1 ratio. The study was conducted according to the requirements of OECD GLP Principles.
The test item was administered once to six groups of 10 rats (5/sex) at three doses of 50, 250 and 1000 μg/kg in the vehicle at a volume of 3 mL/kg. Two vehicle control groups of 10 rats (5/sex) were administered the vehicle only (10% ethanol in 0.9% sodium chloride and 0.056% gentisic acid) at the same volumetric dose.
Four groups of rats (one vehicle and three test item treated 50, 250 and 1000 μg/kg) from the main study were sacrificed on Day 2.
The following parameters were evaluated: mortality, daily clinical observations, weekly body weights, weekly food consumption, haematology, biochemistry, urinalysis, organ weights and gross necropsy on day of sacrifice. Extensive histopathology was performed on all animals.

[2] = HPLC analysis of radiochemical purity and stability of the formulation (gamma scintillation detector); type: physicochemical; details: post-manufacture
Description: The formulations of a radioisotope-ligand complex referred to herein are stable in solution and under physiological conditions for a time. The stability of the formulation relates to the stability of the complex, where the radioisotope may undergo dissociation or the complex may undergo radiolysis. The stability of the complex can be measured by considering the radiochemical purity of the formulation. Radiochemical purity is defined as the amount of the radioisotope complexed by the sarcophagine ligand expressed as percentage of the total amount of the radioisotope present in the formulation. The radioisotope may be present in the formulation as a complex with the sarcophagine ligand, as a free radioisotope or as part of a radiolysis product.
The solution is then filtered through a solid phase extraction cartridge. […] HPLC analysis of the solution obtained can be seen in FIG. 1, showing over 97% radiochemical purity. Further HPLC analysis of the same product solution obtained over multiple time points can be seen in FIG. 2, showing that the radiochemical purity remains >90% for more than 11 hours.
The solution is then filtered through a solid phase extraction cartridge. […] HPLC analysis of the solution obtained can be seen in FIG. 3, showing over 98% radiochemical purity. […]

[3] = type: in vitro ADME; details: human, serum
in vivo = experiment: in vivo; parameters: species or system Balb/c nude mice; details: Balb/c nude, mouse
[4] = test item SCC and SL 1:1, 2-day and 15-day experimental periods

## CC(O)[C@H](NC(=O)[C@@H]1CSSC[C@H](NC(=O)[C@@H](Cc2ccccc2)NC(=O)CCCC(=O)NC23CNCCNCC(C)(CNCCNC2)CNCCNC3)C(=O)N[C@@H](Cc2ccc(O)cc2)C(=O)N[C@H](Cc2c[nH]c3ccccc23)C(=O)N[C@@H](CCCCN)C(=O)N[C@@H](C(C)O)C(=O)N1)C(=O)O (stereo partly drawn) [SARTATE, MeCOSar-D-Phe-Cys-Tyr-D-Trp-Lys-Thr-Cys-Thr-OH]
[1]; both sexes, Sprague Dawley, in vivo, intravenous, from rat NOAEL of 1 mg/kg, read-out: Human Equivalent Dose (HED) of the NOAEL
  Human equivalent dose of the NOAEL at 14 days: 0.16 mg/kg
[1]; both sexes, in vivo, iv, single i.v. dose, Sprague Dawley rat, read-out: No Observed Adverse Effect level (NOAEL)
  NOAEL at 14 days: 1 mg/kg
[1]; intravenously at 50, 250 and 1000 μg/kg
  toxic effects: no toxic effects
[1]; maximum total dose 0.02 mg per patient
  safety margin of NOAEL over the maximum human dose: 50 times
[1]; patient with a weight of 70 kg
  Human Equivalent Dose as total dose: 11.2 mg
[1]; test item SCC and SL 1:1
  haematology, blood biochemistry and urine analysis: no test item-related effects
  organ weight and histopathology: no evidence of any test item-related effect
[1]; [4]
  body weight gains versus vehicle control: comparable body weights gains
  clinical abnormalities: no clinical abnormalities related to treatment
  feed intake versus control: similar
[1]; test item SCC and SL 1:1, all animals
  macroscopic abnormalities at necropsy: No macroscopic abnormalities
[1]; test item SCC and SL at 1:1 ratio, 50, 250 and 1000 μg/kg i.v. single dose, treatment and recovery periods
  mortality: No mortalities related to treatment

## CC(O)[C@H](NC(=O)[C@@H]1CSSC[C@H](NC(=O)[C@@H](Cc2ccccc2)NC(=O)CCCC(=O)NC23CNCCNCC(C)(CNCCNC2)CNCCNC3)C(=O)N[C@@H](Cc2ccc(O)cc2)C(=O)N[C@H](Cc2c[nH]c3ccccc23)C(=O)N[C@@H](CCCCN)C(=O)N[C@@H](C(C)O)C(=O)N1)C(=O)O (stereo partly shown) [^64Cu-SARTATE, metal not drawn]
[2]
  time for which stability of the formulation is observed: up to 45 hours
[3]
  time for which the complex remains intact (metabolic stability): up to 45 hours
In vivo; blood
  tissue uptake at 2 h: 0.4 ± 0.2 %ID/g
  tissue uptake at 24 h: 0.1 ± 0.02 %ID/g
In vivo; kidney uptake
  tissue uptake at 24 h: 10.1 ± 3.5 %ID/g
In vivo; muscle accumulation
  tissue uptake at 24 h: 0.1 ± 0.01 %ID/g
In vivo; tumour uptake
  tissue uptake at 24 h: 31.4 ± 14 %ID/g
In vivo; uptake by the liver
  tissue uptake at 2 h: 3.1 ± 1.3 %ID/g
In vivo; uptake in lungs
  tissue uptake at 24 h: 0.6 ± 0.3 %ID/g
In vivo; uptake in spleen
  tissue uptake at 24 h: 0.8 ± 0.2 %ID/g
